Assay: yeast display, Sf9 membrane polyspecificity reagent, FACS + sequencing; frameworks hold sequencing errors
Summary of the method: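 Sorting gates, low and high (top ~1%), were placed on anti-HA fluorescence to track expression and on streptavidin fluorescence to track reagent binding. A clone's polyreactivity label is taken from the gate it came out of. The reagent was 10% biotinylated, detergent-solubilized Sf9 membrane, applied for 1 hour at 4 °C to galactose-induced yeast display cells.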

| Sequence | polyreactivity (PSR sort gate) |
| --- | --- |
| QVQLVESGGGLVQAGGSLRLSCAASGRTFPYNAMGWYIQAPGKERELVAAISSGGSTNYADSVKGRFTISRDNAKNTVYLQMNSLKPEDTAVYYCAVTGWPRYTWYSYGYWGQGTQVTVSS | low polyreactivity |
| QVQLVESGGGLVQAGGSLRLSCAASGRTFPYNAMGWYRPAPGKERELVAAISGRGGSTYYADYVKGRFTISRDNAKNTVYLQMNSLKPEDTAVYYCAARLPWSYYRTQGYNYWGQGTQVTVSS | high polyreactivity |
| QVQLVESGGGLVQAGGSLRLSCAASGRTFPYNAMGWYRQAPGKERELVAAISYSGGRTYYADSVKGRFTISRDNAKNTFYLQMNSLKPEDTAVYYCNALGSGREDDYWGQGTQVTVSS | high polyreactivity |
| QVQLVESGGGLVQAGGSLRLSCAASGRTFPYNAMGWYRQAPGKERELVAAISYSGGRTYYADSVKGRFTISRDNAKNTVYLQMNSLKPEDTAVYYCNALGSGREDDYWGQGTQVTVSS | high polyreactivity |
| QVQLVESGGGLVQAGGSLRLSCAASGRTFPYNAMVWYRQAPGKERELVARITSGVRTYYADSVKGRFTISRDNAKNTVYLQMNSLKPEDTAVYYCAATTYNRFYRAPTSKYDYWGQGTQVTVSS | high polyreactivity |
| QVQLVESGGGLVQAGGSLRLSCAASGRTFPYNARGWYRQAPGKERELVAAISSRGGSTYYADSVKGRFTISRDNAKNTVYLQMNSLKPEDTAVYYCAAQFRFSGMGYWGQGTQVTVSS | high polyreactivity |
| QVQLVESGGGLVQAGGSLRLSCAASGRTFPYYAMGGYRKAPGKERELLASISRGGNTNYADSVKGRFTISRDNAKNTVYLQMNSLKPEATAVYYCAADYYLAYGSRRGGYWGQGTQVTVSS | high polyreactivity |
| QVQLVESGGGLVQAGGSLRLSCAASGRTFPYYAMGWYRQAPGKERELVAAISSSGGRTYYADSVKGRFTISRDNAKNTVYLQMNSLKREDTAVYYCNVDAWYPYQGFLVGYYYWGQGTQVTVSS | low polyreactivity |
| QVQLVESGGGLVQAGGSLRLSCAASGRTFPYYAMGWYRQAPGKERELVAAISSSGGRTYYADSVKGRFTISRDNAKNTVYLQMNSQKPEDTAVYYCAAQTPGVYLRQIGGYYYWGQGTQVTVSS | low polyreactivity |
| QVQLVESGGGLVQAGGSLRLSCAASGRTFPYYAMGWYRQAPGKERELVAAITWSGGTTYYADSVKGRFTISRDNAKNTVYLQMNSLKPEDTAVYYCAADFYGPDGYDYWGQGTQVTVSS | low polyreactivity |
| QVQLVESGGGLVQAGGSLRLSCAASGRTFPYYTMGWYIQAPGKERELVAAIDGSGDNTYYADSVKGRFTISRDYAKNTVYLQLNSLKPEDNAVYYCTAEQWWSLDYWGQGTQVTVSS | low polyreactivity |
| QVQLVESGGGLVQAGGSLRLSCAASGRTFPYYTMGWYRQAPGKERELVAAISRSGGSTYYADSVKGRFTISRDNAKNTVYLQMNSLKPEDTAVYYCAAGIYRYNRYWGYNYWGQGTQVTVSS | high polyreactivity |
| QVQLVESGGGLVQAGGSLRLSCAASGRTFQFYAMGWYRQAPGKEREWVAAISRSSGSTTYADSVKGRFTISRDNAKNTVYLQMNSLKPEDTAVFYCDADARYRSYSLLVRPARYYYWGQGTQVTVAS | high polyreactivity |
| QVQLVESGGGLVQAGGSLRLSCAASGRTFQGYAMGWYRQAPGKERELVAAISRSGGRTYYADSVKGRFTISRDNAKNTVYLQMNSLKPEDTAVYYCAARRRWSQTPFDYWGQGTQVTVSS | high polyreactivity |
| QVQLVESGGGLVQAGGSLRLSCAASGRTFQKNTMGWYRQAPGKERELVAAIDYSATTTYYADSVKGRFTISRDNAKNTVYLQMNSLKTEDTAVYYCAARWSYPRWEFDYWGQGTQVTVSS | high polyreactivity |
| QVQLVESGGGLVQAGGSLRLSCAASGRTFQLYAMGWYRQAPGKQRELVAAIRTGGSTNYADSVKGRFTISRDNAKNTVYLQMNSLKPEDTAVYYCAAVQRTDRSAHYSWGQGTQVTVSS | low polyreactivity |
| QVQLVESGGGLVQAGGSLRLSCAASGRTFQPYAMGWYRQAPGKERELVAAITSIGGSTFYADSVKGRFTISRDNAKNTVYLQMNSLKPEDTAVYYCNARRYWLRYDYWGQGTQVTVSS | low polyreactivity |
| QVQLVESGGGLVQAGGSLRLSCAASGRTFQPYAMGWYRQAPRKERELVASISRSGGRTYYADSVKGRFTISRDNAKNTVYLQMNSLKPEDTAVYYCADDIPYTRSIKYYYWGQGTQVTVSS | high polyreactivity |
| QVQLVESGGGLVQAGGSLRLSCAASGRTFQRNAMGWYIQAPGKERELVATITTNGGSTYYADSVKGRFTISRDNAKNTVYLQMNSLKPEDTAVYYCAAPFNPRVRTLRSVRMDYWGQGTQVTVSS | low polyreactivity |
| QVQLVESGGGLVQAGGSLRLSCAASGRTFQRYAMGWYRQAPGKERELVAAITSSGGTTYYADSVKGRFTISRDNAKNTVYLQMYSMKPEDTAVYYCAARRITSRYDYWGQGTQVTVSS | high polyreactivity |
| QVQLVESGGGLVQAGGSLRLSCAASGRTFQSNGMGWYRQAPGKERELVAAITWSSGTTYYADSVKGRFTISRDNAKNTVYLQMNSLKPEDTAVYYCAADWGHWNSLYYSGFGYWGQGTQVTVSS | low polyreactivity |
| QVQLVESGGGLVQAGGSLRLSCAASGRTFQSYAMGRYRQGPGKEREFVAVISRSGGDTYYADSVKGRFTISRDNAKNTVYLLMNSLKPEDTAVYYCARGYTWFYADCPEYDYWGQGTQVTVSS | high polyreactivity |

| Sequence | polyreactivity (PSR sort gate) |
| --- | --- |
| QVQLVESGGGLVQAGGSLRLSCAASGRTFQSYAMGWYRQAPGKERELVAAITITGGRTYYADSVKGRFTISRDNAKNTVYLQMNSLKPEDTAVYYCADYDYWGQGTQVTVSS | low polyreactivity |
| QVQLVESGGGLVQAGGSLRLSCAASGRTFQTNAMGWYRQAPGKVRELVAAISSTGGSTYYADSVKGRFTISRDNAKYTVYLQMNSLKPEDTAVYYCNAGRTYRYDYWGQGTQVTVSS | high polyreactivity |
| QVQLVESGGGLVQAGGSLRLSCAASGRTFQTYAMGWYRQAPGKERELVASINWSDGSTYYADSVKGRFTISRDNAKNTVYLQMNSLKPEDTAVYYCAADSSAWLYDYWGQGTQVTVSS | low polyreactivity |
| QVQLVESGGGLVQAGGSLRLSCAASGRTFQTYARGWYRQAPGKERELVAAISKSGGGTYYADSVKGRFTISRDNAKNTVYLQMNSLKPEDTAVYYCATAGYHYRAWGGRYDYWGQGTQVTVSS | high polyreactivity |
| QVQLVESGGGLVQAGGSLRLSCAASGRTFQVYAMGWYTQAPGKERELVADITGRGGITYYADSVKGRFTISRDNAKNTVYLQMNSLKPEDTAVYYCAAERYNYKTIYRYDYWGQGTQVTVSS | high polyreactivity |
| QVQLVESGGGLVQAGGSLRLSCAASGRTFQYNAMGWYRQAPGKERELVAAISSSGGSTYYADSVKGRFTISRDNAKNTVYLQMNSLKPEDTAVYYCNAYSQSWNFYGDGDYWGQGSQVTVSS | low polyreactivity |
| QVQLVESGGGLVQAGGSLRLSCAASGRTFQYYAMGWYIQGPGKERELVAAISWSGGSTYYADSVKGRFTISRDNAKNTVYLQMNSLKPEDTAVYFCAAVVGRNRTRSYGYWGQGTQVTVSS | high polyreactivity |
| QVQLVESGGGLVQAGGSLRLSCAASGRTFQYYAMGWYRQAPGKERELVAAINQGGGRTYYADSVKGRFTISRDTAKNTVYLQMNSLKPEDTAVYYCAADGLSKFDYWGQGTQVTVSS | low polyreactivity |
| QVQLVESGGGLVQAGGSLRLSCAASGRTFQYYAMGWYRQAPGKERELVAAITSGGSTYYADSVTGRFTISRDNAKYTVYLQLNSLKPEDTAVYYCDATFYYSGHDDYWGQGTLVTVSS | low polyreactivity |
| QVQLVESGGGLVQAGGSLRLSCAASGRTFQYYAMGWYRQAPGQERELVAAITSGGSTYYADSVKGRFTISRDNAKNTVYLQMNSLKPEDTAVYYCAATFYYSGHYDYWGQGTQVTVSS | low polyreactivity |
| QVQLVESGGGLVQAGGSLRLSCAASGRTFRANAMEWYRQAPGKEREFVAVISLSGGGTYADSVKGRFTISRDNAKNTVYLQMNSLKPEDTAVYYCNRVPRRREYFHSNYLALFDYWGQGTQVTVSW | low polyreactivity |
| QVQLVESGGGLVQAGGSLRLSCAASGRTFRANAMGWYRQAPGKERELVAAITSTGDRTYYADSVKGRFTISRDNAKNTVYLQMNSLKPEDTAVYYCAAENNRYGGYRKYDYWGQGTQVTVSS | low polyreactivity |
| QVQLVESGGGLVQAGGSLRLSCAASGRTFRAYAMGWYRQAPGKERELVAAISYDGTRTYYADSVKGRFTISRDNAKNTVYLQMNSLKPEDTAVYYCNAVWVRGFYRVYDYWGQGTQVTVSS | high polyreactivity |
| QVQLVESGGGLVQAGGSLRLSCAASGRTFRCYAMGWDRQAPGKERELVAAITYSVGSTYYADSVKGRLTISRDTAKNTVYLQMNSLKPEDTAVYYCAADSYPYRYRGKYSRLDYCGQGTQVTVSS | low polyreactivity |
| QVQLVESGGGLVQAGGSLRLSCAASGRTFRFNAMGWYRQAPGKEREFVAAITSGGGTYYADSVKGRFTISRDNGKNTVYLQMNSLKPEDTAVYYCATVGKVHHRLVAMDYWGQGTQVTVSS | low polyreactivity |
| QVQLVESGGGLVQAGGSLRLSCAASGRTFRFNAMGWYRQAPGKERELVAAISSRGGNTYYADSVKGRFTISRDNAKNTVYLQMNSLKPVDTSVYYCNKDLNYWGYAKYYGYYYWGQGTQVTVSS | high polyreactivity |
| QVQLVESGGGLVQAGGSLRLSCAASGRTFRFYAMGWYRQAPGKERELVAAIRWSGGSTYYADSVKGRFTISRDNAKNTVYLQMNSLKPEDTAVYYCNADNRWPFGGWYGLDYWGQGTQVTVSS | high polyreactivity |
| QVQLVESGGGLVQAGGSLRLSCAASGRTFRGNAMGWYRQAPGKERELVAAIRYRGGSTYYADSVKGRFTISRDNAKNTVYLQMNSLKPEDTAVYYCARRYTVHTQHYDYWGQGTQVTVSS | high polyreactivity |
| QVQLVESGGGLVQAGGSLRLSCAASGRTFRGNAMGWYRQAPGKERELVAAISRSGGRTYYADSVKGRFTISRDNAKNTVYLQMNSLKPEDTAVYYCNARSYRRWGYYKQAPNGDYWGQGTQVTVSS | high polyreactivity |
| QVQLVESGGGLVQAGGSLRLSCAASGRTFRGNAMGWYRQAPGKERELVATINSGASTNYADSVKGRFTISRDNAKNPVYLQMNSLNPEDTAVYYCAAVKYFRWKYNYWGQGTQVTVSS | high polyreactivity |
| QVQLVESGGGLVQAGGSLRLSCAASGRTFRGNDMGWYRQAPGKEWELVATITRNGGSTRYADSVKGRFTISRDNAKNTVYLQMNSLKPEDTAVYYCNARSRYFGYDYWGQGTQVTVSS | high polyreactivity |

Reference: the nanobody polyreactivity screen of Harvey et al. (2022)
